Values belong to the molecule of their own block, whether it stands above or below them.
How the values were obtained:
[1] = target: FRB domain of human mTOR / FKBP-12 (FRB-NLuc/CLuc-FKBP LCI pair) (Homo sapiens, UniProt P42345+P62942); test: Luciferase complementation imaging (LCI) of rapamycin-induced FRB/FKBP association in live HEK-293 cells; format: cell-based; conditions: HEK293, read-out: EC90 of rapamycin; HEK-293 cells transfected with FRB-NLuc/CLuc-FKBP
Method: Data, expressed as mean photon flux±SEM of quadruplicate wells, are representative of three independent tests.
HEK-293 cells were cultured in Dulbecco's Modified Eagle Medium (DMEM), (Life Technologies, 2575 University Ave. W., St. Paul, Minn. 55114 USA) supplemented with 10% fetal calf serum (FCS), 1% glutamine, 0.1% P/S, 0.1% fungizone. Cells (3×10^6/10 cm dish or 1.5×10^5 per 35 mm dish) were transiently co-transfected with pairs of plasmids as indicated using FuGene-6 (Roche) according to the manufacturers directions.

[2] = tested on: Cdc25C-NLuc/CLuc-14-3-3ε LCI pair; test: LCI of Cdc25C/14-3-3ε interaction in HEK-293 cells; format: cell-based, human; conditions: UCN-01 1 μM, 6 hrs
Method: HEK-293 cells transfected with Cdc25C-NLuc/CLuc-14-3-3ε or mutant S216A Cdc25C-NLuc/CLuc-14-3-3ε were treated with vehicle alone or UCN-01 (1 μM) for 6 hrs prior to LCI. Data are expressed as percent of bioluminescence relative to untreated Cdc25C-NLuc/CLuc-14-3-3ε in cells and represent the mean±SEM of three independent experiments, n=4 each.
To replace the FRB with human Cdc25C or human p91 STAT1 (J. E. Darnell Jr., The Rockefeller University, 1230 York Avenue, NY, N.Y. 10021, USA.) in the NLuc fusion vector, open reading frames of these cDNAs were amplified by PCR using 5′ primers containing a BamHI site and Kozak consensus sequence upstream of the start site and 3′ primers which reconstituted the linker region up to the BsiWI site. FRB was replaced using the BamHI and BsiWI sites. FKBP was similarly replaced with 14-3-3ε or STAT1 using BsiWI at the 3′ end and EcoRV at the 5′ end.
Cells (1×10^4/well in 100 μl media) were transferred to 96-well black walled plates 16-24 hrs after transfection. At the times indicated, growth media was replaced with media containing appropriate drugs or vehicles. To image live cells, D-luciferin (10 μl of 1.5 mg/ml in PBS) was added to wells. Photon flux for each well was measured 8-10 min after addition of D-luciferin with an IVIS CCD camera (1 min exposure, f-stop=1, binning 8, FOV 15 cm). […]

[3] = tested on: phosphorylation of Cdc25C-NLuc on S216; test: Western blot of phospho-S216 Cdc25C-NLuc in HEK-293 cells; format: cell-based, human; conditions: UCN-01 1 μM, 6 hrs
Method: Cells were left untreated or treated with UCN-01 (1 μM) for 6 hrs prior to lysis, processed for Western analysis and then probed with the antibodies indicated to visualize expression, phosphorylation, and the effect of UCN-01 on the LCI constructs.
Cells (3×10^6/10 cm dish) were transfected with the indicated plasmids (6 μg each). Media was removed 6 hrs prior to lysis and replaced with media containing UCN-01 at the concentrations indicated. Cells were washed with PBS and lysed by incubation for 30 min at 4° C. with 1 ml RIPA buffer containing protease inhibitors (50 mM tris-HCl, pH 7.4, 1% NP-40, 0.25% deoxycholic acid, 150 mM NaCl, 1 mM EDTA, 1 mM each PMSF, sodium orthovanadate, and NaF, 1 μg/ml each leupeptin, aprotinin, pepstatin). After centrifugation to remove insoluble material, protein concentration was determined by BCA (Pierce Biotechnology, Inc., Customer Service Department, P.O. Box 117, Rockford, Ill. 61105 U.S.A). The Bicinchoninic Acid (BCA) test to determine protein concentration is a highly sensitive alternate assay to the Lowry assay.
Proteins (200 μg) were separated by SDS-PAGE and analyzed using polyclonal primary antibodies against pGL3 luciferase (Promega US, 2800 Woods Hollow Road, Madison Wis. 53711, USA) or phospho-S216-Cdc25C (Santa Cruz Biotechnologies, 2145 Delaware Avenue, Santa Cruz, Calif. 95060, U.S.A.). […]

[4] = tested on: STAT1-NLuc, CLuc-STAT1, endogenous p91 and p84 STAT1 phosphorylation; test: Western blot of Y701 phosphorylation of STAT1 reporters and endogenous STAT1 in HEK-293 cells; format: cell-based, human; conditions: IFN-γ 1000 U/ml, 30 min
Method: Cells were left untreated or treated with IFN-γ (1000 U/ml) for 30 min prior to lysis, processed for Western analysis and then probed with the antibodies indicated to visualize expression and IFN-γ-induced phosphorylation of STAT1-NLuc (grey arrows), CLuc-STAT1 (black arrows), and endogenous p91 and p84 STAT1 (unfilled arrows). Intact luciferase expression (hatched arrow) is also shown. Note that while STAT1-NLuc could not be visualized using the STAT1 antibody, the fusion could be visualized with both Luc and phospho-STAT1 antibodies.

[5] = tested on: STAT1-NLuc/CLuc-STAT1 LCI pair; test: LCI of STAT1-NLuc/CLuc-STAT1 in intact transduced cells (HEK-293, 2ftgh, U3A); format: cell-based, human; conditions: any time or any dose
Method: Each transduced cell line was sorted by FACS for expression of appropriate fluorescence markers (EGFP and mRFP) to enrich for cells carrying the imaging constructs. These enriched populations were seeded in a 96-well format (10^4 cells/well), and left untreated or treated with […] (1000 U/ml for 30 min). Bars represent the mean +/−SEM (n=4) for a representative test. Note the y-axis log scale.
The STAT1-NLuc and CLuc-STAT1 open reading frames were cloned into lentiviral vectors (gift of J. Milbrandt, Washington University in St. Louis, One Brookings Drive, St. Louis, Mo. 63130, USA ) downstream of a CMV promoter and upstream of an IRES linked to EGFP (Clontech) or mRFP (R. Tsien, UCSD), respectively.
Cells (1×10^4/well in 100 μl media) were transferred to 96-well black walled plates 16-24 hrs after transfection. At the times indicated, growth media was replaced with media containing appropriate drugs or vehicles. To image live cells, D-luciferin (10 μl of 1.5 mg/ml in PBS) was added to wells. Photon flux for each well was measured 8-10 min after addition of D-luciferin with an IVIS CCD camera (1 min exposure, f-stop=1, binning 8, FOV 15 cm). Cell lyastes used for imaging were prepared using Reporter Lysis Buffer (Promega US, 2800 Woods Hollow Road, Madison Wis. 53711, USA) according to the manufacturers directions.

[6] = tested on: Y701F mutant STAT1 LCI pair; test: Bioluminescence of nuclear extracts of cells expressing the Y701F mutant STAT1 LCI pair; format: cell-based, human; conditions: IFN-γ 20 min, 100 U/ml, HEK-293
Method: (§1) HEK-293 cells were transiently transfected with STAT1-NLuc/CLuc-STAT1, the Y701F STAT1 mutant LCI pair, or intact luciferase. Forty-eight hours after transfection, cells were left untreated or treated with IFN-γ (1000 U/ml for 20 min) (n=3 for each) and then extracts prepared. To measure bioluminescence in extracts, an assay buffer including D-luciferin and ATP (Luciferase Assay Buffer, Promega, USA) was added to duplicate samples of each extract. Bars show the ratio +/−SEM of mean photon flux/μg protein for extracts of IFN-γ treated over untreated cells. […] Duplicate determinations are vertically arranged with independent extracts arrayed horizontally.
To confirm that phosphorylated STAT1 LCI pairs were biologically functional, the inventors measured the IFN-γ-inducible nuclear accumulation of bioluminescence activity. Cytoplasmic and nuclear extracts were prepared from untreated and IFN-γ-treated HEK-293 cells transiently co-transfected with the STAT1-NLuc/CLuc-STAT1 LCI pair, the Y701F mutant pair, or intact luciferase. […] Western blots of the cytoplasmic and nuclear extracts used in FIG. 16. confirmed purity of the extracts, neither fraction showing cross-contamination as assessed by the marker proteins β-tubulin (cytoplasm) and Topo II (nucleus), respectively (data not shown). […]

[7] = tested on: STAT1-NLuc/CLuc-STAT1 LCI pair (nuclear accumulation); test: Bioluminescence of nuclear extracts of cells expressing STAT1-NLuc/CLuc-STAT1; format: cell-based, human
Method: as §1, with “Forty-eight hours after transfection, cells were left untreated or treated with IFN-γ (1000 U/ml for 20 min) (n=3 for each) and then extracts prepared.” left out
To confirm that phosphorylated STAT1 LCI pairs were biologically functional, the inventors measured the IFN-γ-inducible nuclear accumulation of bioluminescence activity. Cytoplasmic and nuclear extracts were prepared from untreated and IFN-γ-treated HEK-293 cells transiently co-transfected with the STAT1-NLuc/CLuc-STAT1 LCI pair, the Y701F mutant pair, or intact luciferase. […] Western blots of the cytoplasmic and nuclear extracts used in FIG. 16. confirmed purity of the extracts, neither fraction showing cross-contamination as assessed by the marker proteins β-tubulin (cytoplasm) and Topo II (nucleus), respectively (data not shown). Western blots also confirmed virtually identical expression levels of wild-type and Y701F mutant LCI pairs as well as appropriate phosphorylation of STAT1 proteins and reporters (data not shown).

Chain of FRB domain of human mTOR / FKBP-12 (FRB-NLuc/CLuc-FKBP LCI pair) (P42345 2024-2113): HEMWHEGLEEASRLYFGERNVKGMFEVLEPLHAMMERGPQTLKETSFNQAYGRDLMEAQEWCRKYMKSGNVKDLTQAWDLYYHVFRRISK
Chain of FRB domain of human mTOR / FKBP-12 (FRB-NLuc/CLuc-FKBP LCI pair) (P62942 2-108): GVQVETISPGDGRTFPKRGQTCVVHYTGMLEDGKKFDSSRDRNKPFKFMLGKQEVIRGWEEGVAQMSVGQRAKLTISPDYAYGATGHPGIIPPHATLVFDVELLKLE

EC90 [1]: 80 nM
Molecule: CO[C@H]1C[C@@H]2CC[C@@H](C)[C@@](O)(O2)C(=O)C(=O)N2CCCC[C@H]2C(=O)O[C@H]([C@H](C)C[C@@H]2CC[C@@H](O)[C@H](OC)C2)CC(=O)[C@H](C)/C=C(\C)[C@@H](O)[C@@H](OC)C(=O)[C@H](C)C[C@H](C)/C=C/C=C/C=C/1C [rapamycin]

Molecule: CN[C@@H]1C[C@H]2O[C@@](C)([C@@H]1OC)n1c3ccccc3c3c4c(c5c6ccccc6n2c5c31)C(=O)N[C@@H]4O [UCN-01]
effect on bioluminescence of Cdc25C-NLuc/CLuc-14-3-3ε [2]: decreased bioluminescence | effect on phosphorylation of Cdc25C-NLuc on S216 [3]: reduction in phosphorylation

B1: IFN-γ: interferon-γ, activates JAK1-mediated phosphorylation of STAT1 on Y701 (protein, UniProt P01579 24-161, looked up)
Interferon gamma: QDPYVKEAENLKKYFNAGHSDVADNGTLFLGILKNWKEESDRKIMQSQIVSFYFKLFKNFKDDQSIQKSVETIKEDMNVKFFNSNKKKRDDFEKLTNYSVTDLNVQRKAIHELIQVMAELSPAAKTGKRKRSQMLFRG
phosphorylation of STAT1-NLuc, CLuc-STAT1 and endogenous p91 and p84 STAT1 [4]: resulted in phosphorylation | effect on bioluminescence of co-transduced intact cells [5]: failed to change bioluminescence | nuclear bioluminescence in extracts of cells with mutant STAT1 LCI pair [6]: No such IFN-γ-induced increase | bioluminescence (photon flux/μg protein) in nuclear extracts of HEK-293 cells ([7]; IFN-γ 20 min): specifically increased | increase in bioluminescence of nuclear extracts of U3A cells ([7]; IFN-γ 30 min, n=3): 6 fold

— patent US7442518B2, “Imaging regulated protein-protein interactions in cells and living animals by enhanced luciferase protein fragment complementation” (Washington University, priority 2003, dated 2008)
